From the supplement of paper PMC10724198
± gives the standard deviation of the averaged measurements.

test system: Saccharomyces cerevisiae; assay: protein stability index of tFT-peptide fusion (C-terminal peptide) (PSI (0-1 scale)); higher = more stable (slower turnover); settings: genetic background: wild type; temperature: 30 C
Description: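 Multiplexed protein stability (MPS) profiling in S. cerevisiae. Random 12-aa peptides (tFT-X12 library) are fused to the C-terminus of a sfGFP-mCherry tandem fluorescent timer, after mCherry and a GGGS linker. Cells are FACS-sorted into 8 mCherry/sfGFP bins and deep-sequenced. The protein stability index (PSI) is the read-weighted bin average, scaled from 0 (unstable) to 1 (stable). Only peptides with >10 reads are reported; cells were grown at 30 °C in SC-His with glucose.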
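Note: PSI is a weighted mean of sequencing reads over stability bins, variants kept only with over 10 reads, mCherry proximal and sfGFP distal, peptide attached via GGGS linker.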

| Sequence | protein stability index |
| --- | --- |
| GVGCVGGGSSCA | 0.67 ± 0.1 |
| GVGFRVVRTSGR | 0.6859 ± 0.0018 |
| GVGRGGAVENKV | 0.742 ± 0.054 |
| GVGVGDCVRCMV | 0.619 ± 0.008 |
| GVGWPGVGAGGG | 0.635 ± 0.05 |
| GVGWQSPGVLVL | 0.605 ± 0.017 |
| GVIGGLRAGVGG | 0.719 ± 0.079 |
| GVLGWTRFRSCS | 0.715 ± 0.077 |
| GVLLWWGRRRGE | 0.7224 ± 0.0048 |
| GVLWCGYGVGGG | 0.762 ± 0.11 |
| GVNGSGFLSEVI | 0.6795 ± 0.0012 |
| GVPGQFVSENII | 0.679 ± 0.027 |
| GVQDVRAGLLEY | 0.676 ± 0.037 |
| GVQFSVWCGSVG | 0.7 ± 0.04 |
| GVRCVQGTVTGR | 0.7 ± 0.099 |
| GVREGCRGGVGA | 0.625 ± 0.052 |
| GVRGCGMTADVF | 0.668 ± 0.008 |
| GVRGGCDRGEVG | 0.604 ± 0.046 |
| GVRPWGGMCSCL | 0.7046 ± 0.0024 |
| GVRSGAGGQGVG | 0.708 ± 0.069 |
| GVSGQGLVAVEV | 0.59 ± 0.035 |
| GVVALFLYLLVL | 0.494 ± 0.02 |
| GVVERGRRAGEG | 0.659 ± 0.028 |
| GVVGKDEGRSRA | 0.797 ± 0.038 |
| GVVMLSDDGSAW | 0.718 ± 0.026 |

| Sequence | protein stability index |
| --- | --- |
| GVVSVFVGSLGG | 0.699 ± 0.067 |
| GVVVVVVGRGLG | 0.574 ± 0.018 |
| GVVWMSCGGGWG | 0.7543 ± 0.0068 |
| GVVWMSCGGWWG | 0.7545 ± 0.0042 |
| GVVWMSGGGWWG | 0.761 ± 0.03 |
| GVWCFPVGVFRA | 0.529 ± 0.011 |
| GVWGVGGGGGGR | 0.634 ± 0.088 |
| GVWRCGVVGLSL | 0.665 ± 0.038 |
| GVWSLVGRGGEG | 0.621 ± 0.017 |
| GVWVASCSGAGI | 0.632 ± 0.033 |
| GWALGRAGASGA | 0.701 ± 0.067 |
| GWGGAGGGGGRV | 0.652 ± 0.1 |
| GWGGCGGWGFVG | 0.605 ± 0.011 |
| GWGGIGDGGPVW | 0.679 ± 0.019 |
| GWGVPGPEPREP | 0.658 ± 0.064 |
| GWHVGCGCTVFR | 0.671 ± 0.061 |
| GWKLGAGRRGVI | 0.704 ± 0.029 |
| GWLGFVGGVRVQ | 0.685 ± 0.0063 |
| GWRGAAGVPTVD | 0.73 ± 0.031 |
| GWSFDLVSAQWG | 0.817 ± 0.02 |
| GWSGCNWCIGVG | 0.584 ± 0.018 |
| GWTGEVGVAAGA | 0.65 ± 0.064 |
| GWVLRERGRGVG | 0.572 ± 0.07 |
| GWWAVSRSGCCC | 0.693 ± 0.015 |
| GYAGSRRLGLQE | 0.641 ± 0.015 |

| Sequence | protein stability index |
| --- | --- |
| GYHRGLSHVLED | 0.694 ± 0.018 |
| GYLGEIHLHYVQ | 0.708 ± 0.048 |
| GYWGRGGGLGGV | 0.7438 ± 0.001 |
| GYYVLSIGGVIV | 0.574 ± 0.0065 |
| HAARFRLPASPC | 0.672 ± 0.051 |
| HAAWQHPNTTQV | 0.714 ± 0.013 |
| HADFRTLLASRS | 0.67 ± 0.018 |
| HAHPDQTKLDTA | 0.7 ± 0.063 |
| HARAGTKPLTGY | 0.678 ± 0.0092 |
| HCSWRSLMTLAG | 0.642 ± 0.031 |
| HCVRVEWVEGRR | 0.668 ± 0.023 |
| HDGIQVSVRRRT | 0.67 ± 0.011 |
| HFSSLDPFLPSL | 0.712 ± 0.016 |
| HGFHSPPSDLPT | 0.724 ± 0.15 |
| HGLPPPLPPLRS | 0.689 ± 0.019 |
| HGSRGGIINEEG | 0.642 ± 0.082 |
| HGYRWCLHARFG | 0.556 ± 0.058 |
| HHPSPPSPSPAC | 0.698 ± 0.018 |
| HIGDLRDSCFIS | 0.693 ± 0.031 |
| HIIRGDCVGVLG | 0.618 ± 0.017 |
| HILDHVTSSLSF | 0.66 ± 0.011 |
| HILINTCSCASL | 0.546 ± 0.044 |
| HISSFPSPPPPV | 0.711 ± 0.054 |
| HIVSRKYNYPCT | 0.739 ± 0.088 |
| HKEYGTTCYGYR | 0.691 ± 0.049 |

| Sequence | protein stability index |
| --- | --- |
| HLCVDHLGCHSF | 0.703 ± 0.048 |
| HLFWSRGICFFR | 0.631 ± 0.062 |
| HLHGKTERPSHL | 0.811 ± 0.058 |
| HLIRRGGSQTWT | 0.713 ± 0.049 |
| HLLLLSLVFFFW | 0.744 ± 0.017 |
| HLSLPTRAPIRH | 0.696 ± 0.019 |
| HMCSTYGKLRLD | 0.622 ± 0.052 |
| HMLVCPLAALGI | 0.6884 ± 0.0031 |
| HPAGPSGRLLPT | 0.685 ± 0.0095 |
| HPETIGHNVRPR | 0.708 ± 0.048 |
| HPFARGPLSRHP | 0.7 ± 0.081 |
| HPIPHDVSGRRN | 0.784 ± 0.1 |
| HPPITPYLHRRT | 0.724 ± 0.17 |
| HPPPCLSLPSSP | 0.731 ± 0.095 |
| HPPPETEPIPVA | 0.574 ± 0.066 |
| HPPPSPRPPPPP | 0.691 ± 0.039 |
| HPSNMYSGDEAP | 0.68 ± 0.01 |
| HPSPPPPPPFPT | 0.748 ± 0.038 |
| HQYLGMCLDRPV | 0.6455 ± 0.0054 |
| HRASFRIGFRTF | 0.758 ± 0.033 |
| HRCLCGCLDSVV | 0.726 ± 0.028 |
| HRDPRFSRCSTC | 0.69 ± 0.034 |
| HREGTTAFFKTH | 0.536 ± 0.013 |
| HRLMDTNFSRSP | 0.743 ± 0.061 |
| HRLTGMRKRGRG | 0.658 ± 0.066 |

| Sequence | protein stability index |
| --- | --- |
| HRLWAGWGLEQC | 0.712 ± 0.013 |
| HRPDGTSRKSGA | 0.662 ± 0.024 |
| HRRCPVPRGSSP | 0.704 ± 0.019 |
| HRYRAFPLASSR | 0.618 ± 0.056 |
| HSASSDAGIKVR | 0.718 ± 0.0083 |
| HSFPSTLRRCFL | 0.731 ± 0.095 |
| HSHIPPNLTYCP | 0.69396 ± 0.00029 |
| HSIPPPRRHPTI | 0.742 ± 0.025 |
| HSPPAGPPHTKT | 0.6694 ± 0.0039 |
| HSPPPPFSPFSP | 0.667 ± 0.024 |
| HSPSSLCHPSTG | 0.727 ± 0.098 |
| HSRGGEPLTPAW | 0.642 ± 0.092 |
| HSSPPPAPPPLP | 0.697 ± 0.019 |
| HSSSGTHRIKKT | 0.667 ± 0.052 |
| HTKYISRRRTKR | 0.706 ± 0.013 |
| HTPTLPLHPPRY | 0.642 ± 0.037 |
| HTTMVGVAEGWV | 0.686 ± 0.049 |
| HTVPTLLPPNVP | 0.665 ± 0.015 |
| HVAYAQSRLFYA | 0.638 ± 0.094 |
| HVLRMFTGFLFC | 0.624 ± 0.044 |
| HVRVGRGLAVMC | 0.528 ± 0.027 |
| HVYDQLLSGAVA | 0.691 ± 0.017 |
| HWVVRGGSRRVV | 0.7056 ± 0.0045 |
| HYDTHQTPQTSP | 0.667 ± 0.023 |
| IACLDVLRRALF | 0.627 ± 0.016 |

| Sequence | protein stability index |
| --- | --- |
| IADDSSHGFRGE | 0.7161 ± 0.0064 |
| IAKKNKTSKNRK | 0.703 ± 0.025 |
| IALLGCFRVNGN | 0.638 ± 0.095 |
| IAQDLEPACIKG | 0.695 ± 0.021 |
| IATPQNPRRTKA | 0.714 ± 0.045 |
| IAVPFMPADLSF | 0.718 ± 0.0089 |
| IAVSSHPVLVCK | 0.5961 ± 0.0029 |
| IAWGNEISHSLF | 0.72 ± 0.066 |
| ICGGTNFPLGSV | 0.741 ± 0.032 |
| ICGLWVCLGHGF | 0.595 ± 0.067 |
| ICSLLIRREELV | 0.681 ± 0.081 |
| ICSVHFLFFPLL | 0.573 ± 0.014 |
| IDASPRFRDFLF | 0.71 ± 0.022 |
| IDLIKIKKKTKK | 0.786 ± 0.17 |
| IDQTSKRCKRAC | 0.672 ± 0.018 |
| IDYETIQKYKVE | 0.633 ± 0.011 |
| IEEQQKEKNRPK | 0.712 ± 0.027 |
| IFGRLRELTCWT | 0.588 ± 0.034 |
| IFHLFPFDNPYD | 0.8 ± 0.048 |
| IFMGSPYPRLPT | 0.633 ± 0.018 |
| IFPLPPSSRLTP | 0.6934 ± 0.0037 |
| IFWRGVVDVCSG | 0.584 ± 0.065 |
| IGATSMSREARY | 0.7052 ± 0.0017 |
| IGCEVLQCRCVD | 0.672 ± 0.014 |
| IGRLQGWSSGDE | 0.688 ± 0.037 |

| Sequence | protein stability index |
| --- | --- |
| IGRWGVRWKAVG | 0.512 ± 0.053 |
| IGSCLSRTRKRR | 0.6922 ± 0.0031 |
| IHEGIKNENFKR | 0.71 ± 0.0053 |
| IHLQGSSYRSLT | 0.68 ± 0.14 |
| IHQDGEQKETRK | 0.6948 ± 0.0047 |
| IHSPCAMRPLIS | 0.672 ± 0.0087 |
| IHSRAAVGEYTG | 0.6425 ± 0.0046 |
| IHTNICKSKDII | 0.706 ± 0.025 |
| IILDRQNRDLKY | 0.634 ± 0.084 |
| IINKRITKETDE | 0.6738 ± 0.0023 |
| IINKRYEFRERT | 0.764 ± 0.03 |
| IISQLEQSFISP | 0.7402 ± 0.0056 |
| IKEITKENNRNE | 0.708 ± 0.083 |
| IKIKKKKKKKRD | 0.665 ± 0.012 |
| IKKEENKNENQE | 0.6809 ± 0.0035 |
| IKKRHQNGGKKE | 0.65 ± 0.0085 |
| IKKRVTFSYDGK | 0.686 ± 0.062 |
| IKMRKICLIGSM | 0.603 ± 0.052 |
| IKRVPRRSEYRG | 0.633 ± 0.043 |
| IKSTYRNPLPPL | 0.657 ± 0.038 |
| IKYEKENNINKI | 0.679 ± 0.039 |
| ILCPIKHKRKGS | 0.703 ± 0.064 |
| ILFLGSLGCPGG | 0.697 ± 0.019 |
| ILGVVLRLCNCQ | 0.7834 ± 0.0055 |
| ILIYFWFSFFFF | 0.753 ± 0.013 |

| Sequence | protein stability index |
| --- | --- |
| ILKKLNQEINKE | 0.698 ± 0.028 |
| ILLSETEMIDAD | 0.683 ± 0.022 |
| ILPPCVNIGSGV | 0.64 ± 0.043 |
| ILQGENKEGINT | 0.668 ± 0.035 |
| ILSRAGMITHCR | 0.642 ± 0.019 |
| ILTAVFAVPILP | 0.57 ± 0.04 |
| INIQKKKKIQHI | 0.508 ± 0.031 |
| INKKKKKKSKQK | 0.7 ± 0.089 |
| INKLRLNKKKSF | 0.659 ± 0.008 |
| INRGGLVRGFGS | 0.725 ± 0.17 |
| INSEKKKDRNKL | 0.779 ± 0.02 |
| INTNASSWRICK | 0.7379 ± 0.0049 |
| INVCVLSSSTAS | 0.684 ± 0.079 |
| IPCLPHPSLPPQ | 0.757 ± 0.039 |
| IPFPSFPASLYR | 0.694 ± 0.021 |
| IPGDTLSTTTVT | 0.67 ± 0.05 |
| IPLGGPTPSNYD | 0.721 ± 0.025 |
| IPSHSVLCLSIY | 0.497 ± 0.042 |
| IQHWGIRRRITY | 0.728 ± 0.066 |
| IQKIKYKRKYIK | 0.73 ± 0.027 |
| IQLPPPYATPPS | 0.645 ± 0.012 |
